Assays:
[1] = molecular target: BG505 SOSIP.664 trimer (HIV-1 strain BG505); test: AUC
[2] = molecular target: BG505 SOSIP.664 201C-433C (HIV-1 strain BG505); test: AUC

Substance	stoichiometry N (CD4 per trimer) [1]	stoichiometry N (CD4 per trimer) [2]
2-domain soluble CD4 (CD4 D1D2) (domain or fragment)	3	–
2-domain soluble CD4 (domain or fragment)	–	1
4-domain CD4 (domain or fragment)	2	1
4-domain soluble CD4 (CD4 D1D4) (domain or fragment)	3	–

Reference: article PMC4706170
